T1: human CD96 short isoform v2 expressed on CHO cells (human, UniProt P40200 22-585)
T1 construct: also called hCD96v2; CD96v2; not shown: C-terminal HA-tag
T1 sequence: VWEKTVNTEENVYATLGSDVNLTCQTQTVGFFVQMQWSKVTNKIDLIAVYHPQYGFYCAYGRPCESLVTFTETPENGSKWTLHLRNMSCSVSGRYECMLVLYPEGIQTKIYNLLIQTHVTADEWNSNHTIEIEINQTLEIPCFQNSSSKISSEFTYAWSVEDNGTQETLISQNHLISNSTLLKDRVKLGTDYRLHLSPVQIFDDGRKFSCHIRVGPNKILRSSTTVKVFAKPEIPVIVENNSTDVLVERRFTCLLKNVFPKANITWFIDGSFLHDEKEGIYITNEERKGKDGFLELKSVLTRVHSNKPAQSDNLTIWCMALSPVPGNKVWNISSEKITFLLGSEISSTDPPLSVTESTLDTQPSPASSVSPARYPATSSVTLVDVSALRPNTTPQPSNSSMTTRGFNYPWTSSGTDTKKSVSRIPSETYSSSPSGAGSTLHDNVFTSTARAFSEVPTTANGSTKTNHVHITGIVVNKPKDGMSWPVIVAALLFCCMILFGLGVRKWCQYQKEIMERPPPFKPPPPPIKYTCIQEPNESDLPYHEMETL

T2: mouse CD96 expressed on CHO cells (mouse, UniProt Q3U0X8 22-602)
T2 construct: whole, on cells; also called mCD96
T2 sequence (looked up): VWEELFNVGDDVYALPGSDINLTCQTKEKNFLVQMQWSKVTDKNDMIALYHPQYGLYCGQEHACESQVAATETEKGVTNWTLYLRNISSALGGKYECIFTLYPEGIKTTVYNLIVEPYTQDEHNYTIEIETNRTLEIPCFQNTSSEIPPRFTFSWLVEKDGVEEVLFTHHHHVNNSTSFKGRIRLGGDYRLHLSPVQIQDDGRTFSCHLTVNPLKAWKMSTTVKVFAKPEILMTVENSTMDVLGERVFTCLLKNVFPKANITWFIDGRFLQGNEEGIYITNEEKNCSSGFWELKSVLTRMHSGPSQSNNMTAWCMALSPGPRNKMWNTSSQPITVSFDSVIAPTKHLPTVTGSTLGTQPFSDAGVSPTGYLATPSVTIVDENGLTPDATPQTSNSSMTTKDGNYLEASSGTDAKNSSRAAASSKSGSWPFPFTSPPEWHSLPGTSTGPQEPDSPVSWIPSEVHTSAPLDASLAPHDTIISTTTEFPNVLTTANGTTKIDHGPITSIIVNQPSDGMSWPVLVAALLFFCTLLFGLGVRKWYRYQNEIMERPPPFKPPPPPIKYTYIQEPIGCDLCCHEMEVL

T3: rhesus CD96 transiently expressed on CHO cells (rhesus, UniProt P40200 22-585 (human entry))
T3 construct: also called rhesus CD96, short isoform
T3 chain: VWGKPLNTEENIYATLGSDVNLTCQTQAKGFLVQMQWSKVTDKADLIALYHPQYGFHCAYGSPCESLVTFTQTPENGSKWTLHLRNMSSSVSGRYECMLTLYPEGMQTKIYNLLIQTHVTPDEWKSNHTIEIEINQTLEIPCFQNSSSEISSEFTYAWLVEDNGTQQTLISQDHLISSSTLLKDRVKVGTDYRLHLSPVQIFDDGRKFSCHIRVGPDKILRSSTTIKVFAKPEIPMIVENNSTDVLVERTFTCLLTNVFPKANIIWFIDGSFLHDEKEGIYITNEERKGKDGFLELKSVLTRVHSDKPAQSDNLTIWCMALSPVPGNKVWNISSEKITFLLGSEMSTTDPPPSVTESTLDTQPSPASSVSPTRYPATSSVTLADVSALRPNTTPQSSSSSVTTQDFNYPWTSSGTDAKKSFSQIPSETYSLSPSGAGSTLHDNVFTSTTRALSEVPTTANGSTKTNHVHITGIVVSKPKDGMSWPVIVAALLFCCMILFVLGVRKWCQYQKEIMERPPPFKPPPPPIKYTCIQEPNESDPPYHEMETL


Assays:
[1] = target: T1, human CD96 short isoform v2 expressed …; assay: FCM on hCD96v2-CHO cells
Description: FIG. 6: Binding profiles of anti-hCD96 antibodies on human CD96-transfected CHO cells (hCD96v2, short isoform). CHO cells expressing hCD96v2 were incubated with serial dilution of the indicated mIgG1 or mIgG2a anti-CD96 or isotype control antibodies. […] The results are expressed as the difference of mean fluorescence intensity (delta MFI) between cells stained with antibodies and cells without antibodies. Dose response curves were obtained from GraphPad prism software using a non-linear regression fit with a variable slope model (4 parameters). To simplify the reading, results from the various anti-hCD96 candidates are shown on 4 different panels.
The capacity of the identified mouse anti-CD96 antibodies to recognize the cell membrane expressed human CD96 was further analyzed by flow cytometry (FCM) by using CHO cells stably transfected with the CD96 short isoform v2 (CD96v2; Genbank accession number NM_005816, flanked in C-terminus with HA-tag) (SEQ ID NO: 268).
Mouse anti-CD96 antibodies and isotype control antibodies were incubated at various concentrations from 10 μg/mL to 4.6 ng/mL with CHO cells expressing human CD96 at +4° C. for 30 minutes. […] The differences between the mean fluorescence intensity (MFI) obtained for each of the antibody concentration and the intensity obtained in absence of primary antibody (delta-MFI), were calculated and plotted against the concentrations of antibodies.

[2] = target: T1, human CD96 short isoform v2 expressed …; assay: FCM, inhibition of hCD155-Fc binding to hCD96v2-CHO cells
Description: All candidates except BL006-2-19 that bound very weakly on hCD96v2 by FCM were tested for their capacity to inhibit the binding of human CD155 to hCD96v2 stably expressed on CHO cells. Human CD96-transfected CHO cells (3×10⁵ cells/well of 96-well plate) were incubated at +4° C. for 30 minutes with serial dilutions of anti-CD96 antibodies or isotype control antibody (in mIgG2a or mIgG2aD265A format) in the presence of 4 μg/mL of biotinylated hCD155-Fc (produced and biotinylated at BliNK).
% inhibition=(1−(MFI_wAb&CD155−MFI_CHO)/(MFI_wCD155−MFI_CHO))×100, where MFI_wAb&CD155 is the Mean Intensity Fluorescence (MFI) obtained with the hCD96-CHO cells incubated with the tested antibody and hCD155-hFc; MFI_CHO is the MFI obtained in the absence of hCD155 and mAbs; and MFI_wCD155 is the fluorescence with hCD155 but without pre-incubation with antibody (0% CD155 binding inhibition). The % of inhibition was plotted against antibody concentration and the IC50 values were calculated by using a nonlinear regression analysis model of the GraphPad Prism software.

[3] = target: T2, mouse CD96 expressed on CHO cells; assay: FCM on CHO cells expressing mouse CD96
Description: (§1) The capacity of the identified mouse anti-human CD96 antibodies to recognize the CD96 protein from other species was further analyzed by flow cytometry by using CHO cells expressing the mouse or the rhesus CD96. The expression of the species-specific CD96 on CHO cell surface was confirmed by using staining with appropriate anti-CD96 antibodies and flow cytometry on non-fixed cells. The rat anti-mCD96 antibody clone #630612 (R&D Systems) and the candidate BL006-9-1 (positive by ELISA on rhesus CD96) were used to confirm the expression of rhesus CD96, while the clone 6A6 (rat IgG2a, e-Bioscience) was used to verify the expression of mouse CD96.
(§2) Mouse anti-CD96 antibodies and isotype control antibodies were incubated at 10 or 1 μg/mL with CHO cells expressing different CD96 species at +4° C. for 30 minutes.

[4] = target: T3, rhesus CD96 transiently expressed on …; assay: flow cytometry on CHO cells transiently expressing rhesus CD96; antibody at 1 (thin line) and 10 µg/ml (thick dashed line), filled grey = isotype control
Description: FIG. 7: Binding profiles of anti-CD96 antibodies on CHO cells transfected with rhesus CD96. Anti-CD96 antibodies or the corresponding isotype control mAbs were tested for their capacity to recognize rhesus CD96 transiently expressed on CHO cells by flow cytometry. Each histogram represents the overlay of the fluorescence intensity obtained for each antibody tested at 1 (black line) and 10 μg/ml (thick dashed black line) and compared to the fluorescence obtained with an isotypic control (filled grey histogram).
as §1, §2

Binder | EC50 [1] [nM] | Maximum binding (delta MFI) [1] [delta MFI] | Maximal Inhibition Capacity (%) [2] [%] | binding result [3] | binding result [4] | IC50 [2] [nM]
BL006-9-15G1-15K5 (antibody, V domains shown, Recombinant mIgG2a/kappa (also made as mIgG2a-D265A); also called candidate NO 12) VH: QAYLQQSGAELVRPGASVKMSCKASGYTFTSYNMHWVKQTPRQGLEWIGAVIPGNGDSFYNQKFKGKATLTVDKSSSTAYMQLSSLTSEDSAVYFCGRSSSGCIAYWGQGTLVTVSA VL: DIVLTQSPASLAVSLGQRATISCRVSGSVDYDGDSYMNWYQQKPGQPPKLLIYAASNLESGIPARFSGSGSETDFTLNIHPVEEEDAATYYCLQSNEAPWTFGGGTKVEIK | 14.3 | 42000 | < 5 |  |  | 
BL006-19-352G9-352K8 (antibody, V domains shown, Recombinant mIgG2a/kappa (also made as mIgG2a-D265A); also called candidate NO 17) VH: QVQLQQPGAELVKPGASVKLSCKASGYTFTSYWMHWVKQRPGQGLEWIGMIHPNGDITDYNEKFKSKATLAVDESSSTAFMQLNSLTSEDSAFYYCARASYYGSLYWGQGTTLTVSS VL: DIVMTQSQKFMSTSVGDRVSVTCKASQNVGIAVAWYQKKPGQSPKTLIYSASTRYTGVPDRFTGSGSGTDFTLTINDVQSEDLADYFCQQYGSSPLTFGAGTKLELK |  |  |  | no binding (tested: 1 and 10 µg/mL) | binds | 
BL006-4-31G1-31K3 (antibody, V domains shown, Recombinant mIgG2a/kappa (also made as mIgG2a-D265A); also called candidate NO 10) VH: QVQLQQSGPELVKPGASVKISCKTSGFTFTDYYINWVKQRPGQGLEWIGWIFPGSGSSFYSEIFKGQATLTVDKSSSTAYMLLSSLTSEDSAVYFCARRNYYGYGAYAMDYWGQGTSVTVSS VL: DIQMNQSPSSLSASLGDTITITCRASQSINFWLSWYQQKPGNIPKLLIYKASNLHTGVPSRFSGSGSGTDFTLTISSLQPEDIATYYCLQGQSYPLTFGGGTKLEIK | 4.82 | 723000 | 100 | no binding (tested: 1 and 10 µg/mL) | binds | 16.8
BL006-4-20G5-20K5 (antibody, V domains shown, Recombinant mIgG2a/kappa (also made as mIgG2a-D265A); also called BL006-4-20G5-20K5 #1; candidate NO 1) VH: EVQLAESGGDLVTPGGSLKLSCAASGFTFSSYGMSWVRQTPDKRLEWVATITHGGSYIYYPDSVKGRFTLSRDNAKNTLYLQMSSLKSEDTAMYYCIRHADYARFAYWGQGTLVTVSA VL: DIQMTQTTSSLSASLGDRVTISCRPSQDISNYLNWYQQKPDGTVKLLIYYTSRLHSGVPSRFSGSGSGTDYSLTISNLEQEDIATYFCQQGNTLPWTFGGGTKLEIK |  |  |  | no binding (tested: 1 and 10 µg/mL) | no binding (tested: 10 µg/ml) | 
BL006-4-52G6-52K7 (antibody, V domains shown, Recombinant mIgG2a/kappa (also made as mIgG2a-D265A); also called BL006-4-52G6-52K7 #4; candidate NO 2) VH: QVQLQQPGAELVKPGASVKLSCKASGYSFTSYWMHWVKQRPGQGLEWIGQIDPSDSYTNYNQKFKGKATLTVDKSSSTAYMQLSSLTSEDSAVYYCASGNYGPYLGNYFDYWGQGTTLTVPS VL: DIVMSQSPSSLVVSVGEKVTMSCKSSQSLLHSTNQKNYLAWYQQKPGQSPKLLIYWASTRESGVPDRFTGSGSGTDFTLTISSVKAEDLVVYYCQQYYNYPYTFGGGTKLEIK | 13.4 | 493000 | < 5 | no binding (tested: 1 and 10 µg/mL) | binds | 
BL006-19-134G5-134K4 (antibody, V domains shown, Recombinant mIgG2a/kappa (also made as mIgG2a-D265A); also called BL006-19-134G5-134K4 #2; candidate NO 7) VH: QVQLQQPGAELVKPGASVKLSCKASDYTFTTYWMHWVKQRPGQGLEWIGMIHPNSDTTLYNEKFRSQATLTVDKSSSTAYIQLSRLTSEDSAVYYCVVTGTNFDYWGQGTTLAVSS VL: QVVLTQSPAIMSASPGEKVTMTCSATSSVSYMYWYQQKPGSSPKPWIYRTSNLASGVPVRFSGSGSGTSYSLTISSMEAEDAATYYCQQWSSNPLTFGGGTKLELK |  |  |  | no binding (tested: 1 and 10 µg/mL) | no binding (tested: 10 µg/ml) | 
BL006-19-363G1-363K1 (antibody, V domains shown, Recombinant mIgG2a/kappa (also made as mIgG2a-D265A); also called candidate NO 18) VH: QVQLQQPGAELVKPGASVKLSCKASGYTFTTYWIHWVKQRPGQGLEWIGMILPNSGTTIYNEKFRSQATLTVDKSSSAAYMQLSRLTSEDSAVYYCAVTGTNFDYWGQGTTLTVSS VL: QIVLTQSPAIMSASPGEKVTMTCSASSSVSYMYWYQQKPGSSPKPWIYRTSNLASGVPVRFSGSGFGTSYSLTISNMEAEDAATYYCQQWSSNPLTFGTGTKLELK |  |  |  | no binding (tested: 1 and 10 µg/mL) | no binding (tested: 10 µg/ml) | 
BL006-19-370G9-370K16 (antibody, V domains shown, Recombinant mIgG2a/kappa (also made as mIgG2a-D265A); also called candidate NO 19) VH: QVQLQQSGAELGRPGTSVKMSCKAAGYTFTNYWIGWVKQRPGHGLEWIGDIYPGGGYTNYNEKFKGKATLTADTSSSTAYIQLSSLTSEDSAIYYCARSGYYDGSPLAMDYWGQGTSVTVS VL: QIVLTQSPTIMSASPGEKVTMTCSASSSVSYMHWYQQKSGTSPKRWIYDTSKLASGVPARFSGSGSGTSYSLTISSMEAEDAATYYCQQWSSNPPTFGSGTKLEIK |  |  |  | no binding (tested: 1 and 10 µg/mL) | no binding (tested: 10 µg/ml) | 

Source: patent US20230192845A1 (BLINK BIOMEDICAL, published 2023)
